Patent US20210355194A1

What was measured:
[1] = molecular target: ACE2 on VERO E6 cells (African green monkey); assay: flow cytometry, VERO E6 cells, positive control
[2] = molecular target: SARS-CoV-2 antigen of the epitope binning (SARS-CoV-2) (UniProt P0DTC2); assay: epitope binning; competitor 2-2
[3] = molecular target: SARS-CoV-2 antigen of the epitope binning (SARS-CoV-2) (UniProt P0DTC2); assay: epitope binning; competitor 2-11
[4] = molecular target: SARS-CoV-2 antigen of the epitope binning (SARS-CoV-2) (UniProt P0DTC2); assay: epitope binning; competitor 1-32
[5] = molecular target: SARS-CoV-2 antigen of the epitope binning (SARS-CoV-2) (UniProt P0DTC2); assay: epitope binning; competitor 2-8
[6] = molecular target: SARS-CoV-2 antigen of the epitope binning (SARS-CoV-2) (UniProt P0DTC2); assay: epitope binning; competitor 1-16
[7] = molecular target: SARS-CoV-2 antigen of the epitope binning (SARS-CoV-2) (UniProt P0DTC2); assay: epitope binning; competitor 1-35
[8] = molecular target: SARS-CoV-2 antigen of the epitope binning (SARS-CoV-2) (UniProt P0DTC2); assay: epitope binning; competitor 2-6
[9] = molecular target: SARS-CoV-2 antigen of the epitope binning (SARS-CoV-2) (UniProt P0DTC2); assay: epitope binning; competitor 2-5
[10] = molecular target: SARS-CoV-2 antigen of the epitope binning (SARS-CoV-2) (UniProt P0DTC2); assay: epitope binning; competitor CR3022
[11] = molecular target: SARS-CoV-2 antigen of the epitope binning (SARS-CoV-2) (UniProt P0DTC2); assay: epitope binning; competitor Acro mAb

| Substance | MFI [1] | MFI/Baseline [1] | epitope binning score [2] | epitope binning score [3] | epitope binning score [4] | epitope binning score [5] | epitope binning score [6] | epitope binning score [7] | epitope binning score [8] | epitope binning score [9] | epitope binning score [10] | epitope binning score [11] |
| --- | --- | --- | --- | --- | --- | --- | --- | --- | --- | --- | --- | --- |
| S1 RBD Fc fusion (from UniProt P0DTC2 319-541) | 26100 | 75.9 | – | – | – | – | – | – | – | – | – | – |
| CR3022 (antibody) | – | – | 0 | 1 | 1 | 0 | 2 | 2 | 2 | 0 | 0 | 2 |
